Results as given in paper PMC4713147.

System: H-NS (Escherichia coli)
Assay: EMSA
Settings: apparent Kd; 200 pM DNA; EMSA: H-NS 0-500 nM, 200 pM 32P-labelled DNA, 4% polyacrylamide gel run at 4 C; buffer, salt and pH not stated (as in ref 99)

| Substance | Kd |
| --- | --- |
| GC rich region of pBR322 | 200 nM |
| bglG DRE (bglB primer pair) | 10 nM |
